Columns and labels:
[1] = molecular target: each of the PTHR1 receptor constructs that retained the ECD; assay: flow cytometry on cells; dose response of staining with VHH-Alexafluor647 (median fluorescent intensity); cells in PBS, 1 h on ice; curves without plateau constrained to the plateau seen with other VHHs
PTHR1_(YFPΔECD) = assay: as above

| EC50 [1] [nM] | EC50 (PTHR1_(YFPΔECD)) [nM] | Binder |
| --- | --- | --- |
| 100 to 200 | – | VHH_(PTHR) (VHH) VHH: EVQLVESGGGLVQAGGSLRLSCAASGNIFANNIMGWYRQPPGKEREFVAHVSHDGDSMYAVSVKGRFAISRKDATNLYLQMNSLKPEDTAIYFCRLLNIPTQGRMEGFWGQGTQVTVSS |
| – | < 10 | VHHGFP (VHH) VHH: QVQLQESGGALVQPGGSLRLSCAASGFPVNRYSMRWYRQAPGKEREWVAGMSSAGDRSSYEDSVKGRFTISRDDARNTVYLQMNSLKPEDTAVYYCNVNVGFEYWGQGTQVTVSS |

— PMC7190724, “Improved GPCR ligands from nanobody tethering” (Nature Communications, 2020)
